Laboratory results: IntAct's records for PubMed 25910212

B1: Plakophilin-2 (Homo sapiens), Q99959-2 (parent)
chain: MAAPGAPAEYGYIRTVLGQQILGQLDSSSLALPSEAKLKLAGSSGRGGQTVKSLRIQEQVQQTLARKGRSSVGNGNLHRTSSVPEYVYNLHLVENDFVGGRSPVPKTYDMLKAGTTATYEGRWGRGTAQYSSQKSVEERSLRHPLRRLEISPDSSPERAHYTHSDYQYSQRSQAGHTLHHQESRRAALLVPPRYARSEIVGVSRAGTTSRQRHFDTYHRQYQHGSVSDTVFDSIPANPALLTYPRPGTSRSMGNLLEKENYLTAGLTVGQVRPLVPLQPVTQNRASRSSWHQSSFHSTRTLREAGPSVAVDSSGRRAHLTVGQAAAGGSGNLLTERSTFTDSQLGNADMEMTLERAVSMLEADHMLPSRISAAATFIQHECFQKSEARKRVNQLRGILKLLQLLKVQNEDVQRAVCGALRNLVFEDNDNKLEVAELNGVPRLLQVLKQTRDLETKKQITGLLWNLSSNDKLKNLMITEALLTLTENIIIPFSGWPEGDYPKANGLLDFDIFYNVTGCLRNMSSAGADGRKAMRRCDGLIDSLVHYVRGTIADYQPDDKATENCVCILHNLSYQLEAELPEKYSQNIYIQNRNIQTDNNKSIGCFGSRSRKVKEQYQDVPMPEEKSNPKGVEWLWHSIVIRMYLSLIAKSVRNYTQEASLGALQNLTAGSGPMPTSVAQTVVQKESGLQHTRKMLHVGDPSVKKTAISLLRNLSRNLSLQNEIAKETLPDLVSIIPDTVPSTDLLIETTASACYTLNNIIQNSYQNARDLLNTGGIQKIMAISAGDAYASNKASKAASVLLYSLWAHTELHHAYKKAQFKKTDFVNSRTAKAYHSLKD
partner: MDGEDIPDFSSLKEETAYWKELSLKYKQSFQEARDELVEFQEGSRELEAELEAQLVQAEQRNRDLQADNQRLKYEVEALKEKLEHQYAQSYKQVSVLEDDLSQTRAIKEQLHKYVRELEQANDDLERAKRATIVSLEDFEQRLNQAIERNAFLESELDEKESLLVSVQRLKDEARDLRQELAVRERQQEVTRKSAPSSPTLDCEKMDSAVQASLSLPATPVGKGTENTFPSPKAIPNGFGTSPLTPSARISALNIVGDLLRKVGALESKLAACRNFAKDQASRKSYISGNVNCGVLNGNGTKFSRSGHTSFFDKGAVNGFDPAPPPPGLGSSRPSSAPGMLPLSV
B2: Emerin (Homo sapiens), P50402 (parent)
chain: MDNYADLSDTELTTLLRRYNIPHGPVVGSTRRLYEKKIFEYETQRRRLSPPSSSAASSYSFSDLNSTRGDADMYDLPKKEDALLYQSKGYNDDYYEESYFTTRTYGEPESAGPSRAVRQSVTSFPDADAFHHQVHDDDLLSSSEEECKDRERPMYGRDSAYQSITHYRPVSASRSSLDLSYYPTSSSTSFMSSSSSSSSWLTRRAIRPENRAPGAGLGQDRQVPLWGQLLLFLVFVIVLFFIYHFMQAEEGNPF
partner: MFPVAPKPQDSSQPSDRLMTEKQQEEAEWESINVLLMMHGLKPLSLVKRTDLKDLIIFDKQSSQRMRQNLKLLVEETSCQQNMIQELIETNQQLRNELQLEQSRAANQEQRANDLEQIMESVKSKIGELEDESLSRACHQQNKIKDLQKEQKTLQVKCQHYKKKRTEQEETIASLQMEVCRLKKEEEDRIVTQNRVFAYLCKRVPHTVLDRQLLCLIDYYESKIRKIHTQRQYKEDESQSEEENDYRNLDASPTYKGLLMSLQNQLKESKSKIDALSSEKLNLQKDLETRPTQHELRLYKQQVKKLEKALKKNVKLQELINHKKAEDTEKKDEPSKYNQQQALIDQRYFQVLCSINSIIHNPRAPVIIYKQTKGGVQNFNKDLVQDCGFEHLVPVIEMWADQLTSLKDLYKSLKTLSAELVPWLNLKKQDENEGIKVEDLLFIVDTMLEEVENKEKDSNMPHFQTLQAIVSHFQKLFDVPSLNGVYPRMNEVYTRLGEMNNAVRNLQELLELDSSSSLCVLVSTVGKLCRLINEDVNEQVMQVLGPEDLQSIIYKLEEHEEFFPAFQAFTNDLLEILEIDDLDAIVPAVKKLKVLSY
B3: Emerin (Homo sapiens), P50402 (parent)
chain: B2 chain
partner: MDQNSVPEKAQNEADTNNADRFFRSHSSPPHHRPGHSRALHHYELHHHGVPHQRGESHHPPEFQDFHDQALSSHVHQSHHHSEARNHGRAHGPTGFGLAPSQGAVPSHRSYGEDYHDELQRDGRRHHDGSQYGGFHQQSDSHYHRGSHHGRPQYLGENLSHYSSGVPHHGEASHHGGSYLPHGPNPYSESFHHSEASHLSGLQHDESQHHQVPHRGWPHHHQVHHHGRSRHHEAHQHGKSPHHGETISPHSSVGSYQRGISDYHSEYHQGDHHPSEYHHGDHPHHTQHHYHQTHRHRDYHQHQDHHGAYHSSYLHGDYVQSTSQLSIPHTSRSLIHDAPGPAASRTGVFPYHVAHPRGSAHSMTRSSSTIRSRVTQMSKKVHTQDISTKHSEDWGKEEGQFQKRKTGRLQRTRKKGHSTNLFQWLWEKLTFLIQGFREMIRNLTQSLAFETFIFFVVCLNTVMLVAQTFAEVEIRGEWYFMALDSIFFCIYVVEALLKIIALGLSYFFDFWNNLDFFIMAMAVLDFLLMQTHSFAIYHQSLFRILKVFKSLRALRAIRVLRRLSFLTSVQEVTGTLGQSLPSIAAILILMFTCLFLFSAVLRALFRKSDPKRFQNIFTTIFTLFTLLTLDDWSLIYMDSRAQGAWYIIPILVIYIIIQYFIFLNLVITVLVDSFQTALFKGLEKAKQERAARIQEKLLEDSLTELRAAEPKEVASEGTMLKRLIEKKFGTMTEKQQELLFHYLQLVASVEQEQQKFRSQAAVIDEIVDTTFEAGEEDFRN

Variants of: B1
Conditions: with ndel1_human NDEL1, Q9GZM8

effect of a mutation on the interaction	Variant
disrupting interaction strength	S140F
disrupting interaction strength	S644P
with no effect	A264V

Variants of: B2
Conditions: with cep70_human CEP70, Q8NHQ1

effect of a mutation on the interaction	Variant
with no effect	S54F
with no effect	P183T
with no effect	P183H
with no effect	D72V

Variants of: B3
Conditions: with ctsr1_human CATSPER1, Q8NEC5

Variant	effect of a mutation on the interaction
D72V	with no effect
S54F	with no effect

Second part, the variant after the results:

effect of a mutation on the interaction	Variant
with no effect	P183H
with no effect	P183T
